# In US20190185537A1 (AstraZeneca / MedImmune, published 2019):
# Numbered stars: 1 amine (or outer) side, 2 acyl side, 3 side chain; on linkers, the order of the positions; unused ones are H or OH. Side chains are listed from the residue outwards. Ends that are not written are not given here. * marks the point of attachment. γGlu = O=C(O)[C@H](CCC(=O)[*:2])N[*:1]; Palmitoyl = CCCCCCCCCCCCCCCC(=O)*
# T1: human glucose-dependent insulinotropic peptide (gastric inhibitory polypeptide) receptor (human) (UniProt P48546)
# T1 sequence (looked up): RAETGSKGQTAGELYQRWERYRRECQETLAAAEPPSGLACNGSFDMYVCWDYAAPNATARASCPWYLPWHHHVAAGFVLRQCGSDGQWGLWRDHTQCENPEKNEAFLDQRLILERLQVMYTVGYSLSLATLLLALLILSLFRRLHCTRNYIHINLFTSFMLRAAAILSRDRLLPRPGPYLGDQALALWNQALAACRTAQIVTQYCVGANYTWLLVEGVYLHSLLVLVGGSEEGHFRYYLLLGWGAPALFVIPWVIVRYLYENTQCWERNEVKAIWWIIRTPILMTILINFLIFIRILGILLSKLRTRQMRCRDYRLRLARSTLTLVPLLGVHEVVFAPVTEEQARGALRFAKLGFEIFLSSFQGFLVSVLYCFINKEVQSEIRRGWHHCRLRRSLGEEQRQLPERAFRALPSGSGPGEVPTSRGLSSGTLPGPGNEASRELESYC
# B1: g717 (peptide)
# peptide: HSQGTFTSDK([γGlu-Palmitoyl])SKYLDSRRAQDFVQWLEAGG-NH2
# modifications: N-terminus assumed
# SMILES: CCCCCCCCCCCCCCCC(=O)N[C@@H](CCC(=O)NCCCC[C@H](NC(=O)[C@H](CC(=O)O)NC(=O)[C@H](CO)NC(=O)[C@@H](NC(=O)[C@H](Cc1ccccc1)NC(=O)[C@@H](NC(=O)CNC(=O)[C@H](CCC(N)=O)NC(=O)[C@H](CO)NC(=O)[C@@H](N)Cc1c[nH]cn1)[C@@H](C)O)[C@@H](C)O)C(=O)N[C@@H](CO)C(=O)N[C@@H](CCCCN)C(=O)N[C@@H](Cc1ccc(O)cc1)C(=O)N[C@@H](CC(C)C)C(=O)N[C@@H](CC(=O)O)C(=O)N[C@@H](CO)C(=O)N[C@@H](CCCNC(=N)N)C(=O)N[C@@H](CCCNC(=N)N)C(=O)N[C@@H](C)C(=O)N[C@@H](CCC(N)=O)C(=O)N[C@@H](CC(=O)O)C(=O)N[C@@H](Cc1ccccc1)C(=O)N[C@H](C(=O)N[C@@H](CCC(N)=O)C(=O)N[C@@H](Cc1c[nH]c2ccccc12)C(=O)N[C@@H](CC(C)C)C(=O)N[C@@H](CCC(=O)O)C(=O)N[C@@H](C)C(=O)NCC(=O)NCC(N)=O)C(C)C)C(=O)O
# B2: g867 (peptide)
# peptide: HSQGTFTSDYSKYLDSK([γGlu-Palmitoyl])RARDFVAWLVAGG-NH2
# modifications: N-terminus assumed
# SMILES: CCCCCCCCCCCCCCCC(=O)N[C@@H](CCC(=O)NCCCC[C@H](NC(=O)[C@H](CO)NC(=O)[C@H](CC(=O)O)NC(=O)[C@H](CC(C)C)NC(=O)[C@H](Cc1ccc(O)cc1)NC(=O)[C@H](CCCCN)NC(=O)[C@H](CO)NC(=O)[C@H](Cc1ccc(O)cc1)NC(=O)[C@H](CC(=O)O)NC(=O)[C@H](CO)NC(=O)[C@@H](NC(=O)[C@H](Cc1ccccc1)NC(=O)[C@@H](NC(=O)CNC(=O)[C@H](CCC(N)=O)NC(=O)[C@H](CO)NC(=O)[C@@H](N)Cc1c[nH]cn1)[C@@H](C)O)[C@@H](C)O)C(=O)N[C@@H](CCCNC(=N)N)C(=O)N[C@@H](C)C(=O)N[C@@H](CCCNC(=N)N)C(=O)N[C@@H](CC(=O)O)C(=O)N[C@@H](Cc1ccccc1)C(=O)N[C@H](C(=O)N[C@@H](C)C(=O)N[C@@H](Cc1c[nH]c2ccccc12)C(=O)N[C@@H](CC(C)C)C(=O)N[C@H](C(=O)N[C@@H](C)C(=O)NCC(=O)NCC(N)=O)C(C)C)C(C)C)C(=O)O
# B3: g835 (peptide)
# peptide: HSQGTFTSDYSEYLDSK([γGlu-Palmitoyl])RARDFVEWLVAGG-NH2
# modifications: N-terminus assumed
# SMILES: CCCCCCCCCCCCCCCC(=O)N[C@@H](CCC(=O)NCCCC[C@H](NC(=O)[C@H](CO)NC(=O)[C@H](CC(=O)O)NC(=O)[C@H](CC(C)C)NC(=O)[C@H](Cc1ccc(O)cc1)NC(=O)[C@H](CCC(=O)O)NC(=O)[C@H](CO)NC(=O)[C@H](Cc1ccc(O)cc1)NC(=O)[C@H](CC(=O)O)NC(=O)[C@H](CO)NC(=O)[C@@H](NC(=O)[C@H](Cc1ccccc1)NC(=O)[C@@H](NC(=O)CNC(=O)[C@H](CCC(N)=O)NC(=O)[C@H](CO)NC(=O)[C@@H](N)Cc1c[nH]cn1)[C@@H](C)O)[C@@H](C)O)C(=O)N[C@@H](CCCNC(=N)N)C(=O)N[C@@H](C)C(=O)N[C@@H](CCCNC(=N)N)C(=O)N[C@@H](CC(=O)O)C(=O)N[C@@H](Cc1ccccc1)C(=O)N[C@H](C(=O)N[C@@H](CCC(=O)O)C(=O)N[C@@H](Cc1c[nH]c2ccccc12)C(=O)N[C@@H](CC(C)C)C(=O)N[C@H](C(=O)N[C@@H](C)C(=O)NCC(=O)NCC(N)=O)C(C)C)C(C)C)C(=O)O
# B4: g681 (peptide)
# peptide: HGEGTFTSDYSKYLDSK([γGlu-Palmitoyl])RAEDFVEWLVAGG-NH2
# modifications: N-terminus assumed
# SMILES: CCCCCCCCCCCCCCCC(=O)N[C@@H](CCC(=O)NCCCC[C@H](NC(=O)[C@H](CO)NC(=O)[C@H](CC(=O)O)NC(=O)[C@H](CC(C)C)NC(=O)[C@H](Cc1ccc(O)cc1)NC(=O)[C@H](CCCCN)NC(=O)[C@H](CO)NC(=O)[C@H](Cc1ccc(O)cc1)NC(=O)[C@H](CC(=O)O)NC(=O)[C@H](CO)NC(=O)[C@@H](NC(=O)[C@H](Cc1ccccc1)NC(=O)[C@@H](NC(=O)CNC(=O)[C@H](CCC(=O)O)NC(=O)CNC(=O)[C@@H](N)Cc1c[nH]cn1)[C@@H](C)O)[C@@H](C)O)C(=O)N[C@@H](CCCNC(=N)N)C(=O)N[C@@H](C)C(=O)N[C@@H](CCC(=O)O)C(=O)N[C@@H](CC(=O)O)C(=O)N[C@@H](Cc1ccccc1)C(=O)N[C@H](C(=O)N[C@@H](CCC(=O)O)C(=O)N[C@@H](Cc1c[nH]c2ccccc12)C(=O)N[C@@H](CC(C)C)C(=O)N[C@H](C(=O)N[C@@H](C)C(=O)NCC(=O)NCC(N)=O)C(C)C)C(C)C)C(=O)O
# B5: g823 (peptide)
# peptide: HSQGTFTSDYSRYLDSK([γGlu-Palmitoyl])RARDFVEWLVAGG-NH2
# modifications: N-terminus assumed
# SMILES: CCCCCCCCCCCCCCCC(=O)N[C@@H](CCC(=O)NCCCC[C@H](NC(=O)[C@H](CO)NC(=O)[C@H](CC(=O)O)NC(=O)[C@H](CC(C)C)NC(=O)[C@H](Cc1ccc(O)cc1)NC(=O)[C@H](CCCNC(=N)N)NC(=O)[C@H](CO)NC(=O)[C@H](Cc1ccc(O)cc1)NC(=O)[C@H](CC(=O)O)NC(=O)[C@H](CO)NC(=O)[C@@H](NC(=O)[C@H](Cc1ccccc1)NC(=O)[C@@H](NC(=O)CNC(=O)[C@H](CCC(N)=O)NC(=O)[C@H](CO)NC(=O)[C@@H](N)Cc1c[nH]cn1)[C@@H](C)O)[C@@H](C)O)C(=O)N[C@@H](CCCNC(=N)N)C(=O)N[C@@H](C)C(=O)N[C@@H](CCCNC(=N)N)C(=O)N[C@@H](CC(=O)O)C(=O)N[C@@H](Cc1ccccc1)C(=O)N[C@H](C(=O)N[C@@H](CCC(=O)O)C(=O)N[C@@H](Cc1c[nH]c2ccccc12)C(=O)N[C@@H](CC(C)C)C(=O)N[C@H](C(=O)N[C@@H](C)C(=O)NCC(=O)NCC(N)=O)C(C)C)C(C)C)C(=O)O
# B6: g776 (peptide)
# peptide: HSQGTFTSDYSKYLDSK([γGlu-Palmitoyl])RARDFVEWLVAGG-NH2
# modifications: N-terminus assumed
# SMILES: CCCCCCCCCCCCCCCC(=O)N[C@@H](CCC(=O)NCCCC[C@H](NC(=O)[C@H](CO)NC(=O)[C@H](CC(=O)O)NC(=O)[C@H](CC(C)C)NC(=O)[C@H](Cc1ccc(O)cc1)NC(=O)[C@H](CCCCN)NC(=O)[C@H](CO)NC(=O)[C@H](Cc1ccc(O)cc1)NC(=O)[C@H](CC(=O)O)NC(=O)[C@H](CO)NC(=O)[C@@H](NC(=O)[C@H](Cc1ccccc1)NC(=O)[C@@H](NC(=O)CNC(=O)[C@H](CCC(N)=O)NC(=O)[C@H](CO)NC(=O)[C@@H](N)Cc1c[nH]cn1)[C@@H](C)O)[C@@H](C)O)C(=O)N[C@@H](CCCNC(=N)N)C(=O)N[C@@H](C)C(=O)N[C@@H](CCCNC(=N)N)C(=O)N[C@@H](CC(=O)O)C(=O)N[C@@H](Cc1ccccc1)C(=O)N[C@H](C(=O)N[C@@H](CCC(=O)O)C(=O)N[C@@H](Cc1c[nH]c2ccccc12)C(=O)N[C@@H](CC(C)C)C(=O)N[C@H](C(=O)N[C@@H](C)C(=O)NCC(=O)NCC(N)=O)C(C)C)C(C)C)C(=O)O
# B7: g660 (peptide)
# peptide: HGQGTFTSDYSKYLDSK([γGlu-Palmitoyl])RARDFVEWLVAGG-NH2
# modifications: N-terminus assumed
# SMILES: CCCCCCCCCCCCCCCC(=O)N[C@@H](CCC(=O)NCCCC[C@H](NC(=O)[C@H](CO)NC(=O)[C@H](CC(=O)O)NC(=O)[C@H](CC(C)C)NC(=O)[C@H](Cc1ccc(O)cc1)NC(=O)[C@H](CCCCN)NC(=O)[C@H](CO)NC(=O)[C@H](Cc1ccc(O)cc1)NC(=O)[C@H](CC(=O)O)NC(=O)[C@H](CO)NC(=O)[C@@H](NC(=O)[C@H](Cc1ccccc1)NC(=O)[C@@H](NC(=O)CNC(=O)[C@H](CCC(N)=O)NC(=O)CNC(=O)[C@@H](N)Cc1c[nH]cn1)[C@@H](C)O)[C@@H](C)O)C(=O)N[C@@H](CCCNC(=N)N)C(=O)N[C@@H](C)C(=O)N[C@@H](CCCNC(=N)N)C(=O)N[C@@H](CC(=O)O)C(=O)N[C@@H](Cc1ccccc1)C(=O)N[C@H](C(=O)N[C@@H](CCC(=O)O)C(=O)N[C@@H](Cc1c[nH]c2ccccc12)C(=O)N[C@@H](CC(C)C)C(=O)N[C@H](C(=O)N[C@@H](C)C(=O)NCC(=O)NCC(N)=O)C(C)C)C(C)C)C(=O)O
# Target: human glucagon receptor (human, UniProt P47871 26-477)
# Experiment: cell-based or functional assay
# Chain of human glucagon receptor (P47871 26-477): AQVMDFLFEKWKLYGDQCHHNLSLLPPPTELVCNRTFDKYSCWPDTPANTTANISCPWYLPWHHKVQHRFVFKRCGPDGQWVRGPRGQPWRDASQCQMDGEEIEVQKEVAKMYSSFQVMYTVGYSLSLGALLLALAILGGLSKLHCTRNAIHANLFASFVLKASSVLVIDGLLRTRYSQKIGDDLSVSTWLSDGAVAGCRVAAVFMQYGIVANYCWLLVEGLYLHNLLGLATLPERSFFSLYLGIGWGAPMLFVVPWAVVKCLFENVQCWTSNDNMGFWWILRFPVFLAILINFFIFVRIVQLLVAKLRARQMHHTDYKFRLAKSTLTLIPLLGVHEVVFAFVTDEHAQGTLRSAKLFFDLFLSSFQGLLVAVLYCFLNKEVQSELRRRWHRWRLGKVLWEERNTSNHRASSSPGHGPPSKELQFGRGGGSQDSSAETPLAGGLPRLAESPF
row,cAMP EC50 (assay 1) [nM],Binder
1,0.000455,B1
2,0.00704,B2
3,0.424,B3
4,39.9,B4
5,0.00948,B5
6,0.00465,B6
7,1.52,B7

# Target: human GLP-1 receptor (human, UniProt P43220 24-463)
# Experiment: cell-based or functional assay
# Chain of human GLP-1 receptor (P43220 24-463): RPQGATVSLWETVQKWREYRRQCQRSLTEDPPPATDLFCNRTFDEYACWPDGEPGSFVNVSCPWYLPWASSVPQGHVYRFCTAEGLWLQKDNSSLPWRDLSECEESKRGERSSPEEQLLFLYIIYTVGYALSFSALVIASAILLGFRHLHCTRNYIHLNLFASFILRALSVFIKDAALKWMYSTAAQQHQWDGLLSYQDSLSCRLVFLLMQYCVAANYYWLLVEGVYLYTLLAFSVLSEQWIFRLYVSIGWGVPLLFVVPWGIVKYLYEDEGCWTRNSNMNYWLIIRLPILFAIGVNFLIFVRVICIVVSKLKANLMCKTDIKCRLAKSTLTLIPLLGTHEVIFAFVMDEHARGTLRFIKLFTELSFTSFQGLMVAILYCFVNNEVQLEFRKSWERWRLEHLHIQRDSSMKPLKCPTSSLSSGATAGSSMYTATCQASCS
row,cAMP EC50 (assay 1) [nM],Binder
1,0.00577,B1
2,0.0448,B2
3,0.191,B3
4,0.283,B4
5,0.0973,B5
6,0.0702,B6
7,1.06,B7

# Target: T1, human glucose-dependent insulinotropic peptide (gastric inhibitory polypeptide) receptor (human)
# Experiment: cell-based or functional assay
row,cAMP EC50 (assay 1) [nM],Binder
1,1.48,B1
2,41.7,B2
3,97.2,B3
4,124,B4
5,84.2,B5
6,47.9,B6
7,332,B7
